According to patent US20140086913A1 (Gilead, published 2014):
Like-named read-outs stand apart in the source and are kept apart here.

Legend:
mouse ECD-DDR1-Fc [1] = molecular target: T1, mouse ECD-DDR1-Fc (mouse; human, UniProt Q03146 22-414); experiment: ELISA, coated antigen
T1 construct: also called mouse DDR1-ECD; wild-type mouse DDR1-ECD; not shown: human IgG1 Fc of the vector pFuse-hIgG1-Fc1 (Invivogen)
T1 sequence: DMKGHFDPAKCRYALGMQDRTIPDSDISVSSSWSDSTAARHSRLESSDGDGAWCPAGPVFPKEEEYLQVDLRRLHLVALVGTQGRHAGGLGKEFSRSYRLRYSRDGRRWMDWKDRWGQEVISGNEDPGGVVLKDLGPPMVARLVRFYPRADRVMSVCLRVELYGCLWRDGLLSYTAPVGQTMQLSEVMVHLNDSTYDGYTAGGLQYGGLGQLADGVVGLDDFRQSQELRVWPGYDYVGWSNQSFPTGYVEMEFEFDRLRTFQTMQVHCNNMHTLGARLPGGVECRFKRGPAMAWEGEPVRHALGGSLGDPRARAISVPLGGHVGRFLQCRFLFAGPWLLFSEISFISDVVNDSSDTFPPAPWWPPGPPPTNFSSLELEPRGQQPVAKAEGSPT
Experimental: (§1) In this study, ELISA was used to determine the affinity of murine anti-DDR1 monoclonal antibodies to the extracellular domain (ECD) of either human or murine DDR1. A 96-well MaxiSorb ELISA plates (Nunc) were coated with 2 μg/mL of one of three purified recombinant tagged proteins: human ECD-DDR1-His protein, human ECD-DDR1-Fc, or mouse ECD-DDR1-Fc overnight at 4° C. The next day, the plates were blocked with 5% bovine serum albumin (BSA, Jackson Immunoresearch) prior to the addition of serially diluted anti-DDR1 monoclonal antibodies. Antibodies were incubated for 1 hr at room temperature. The binding of antibody to the antigen was detected by incubating samples with anti-mouse IgG-HRP (horse radish peroxidase) secondary detection antibody (Jackson Immunoresearch) for 1 hr. After a washing step, 3,3′,5,5″-tetramethylbenzidine (TMB) reagent was added for HRP to produce a colorimetric signal. The reaction was stopped by addition of 1M hydrochloric acid after 2 minutes and measured for absorbance (optical density, OD) at 450λ on a Molecular Devices plate reader. The OD values were plotted against antibody concentration and fitted using a using 4-parameter logistic equation in SoftMax software (Molecular Devices). The apparent affinity constant (KD) was taken from the C-parameter of the equation (y=(A−D)/(1+(x/C)̂B)+D). The apparent affinity constants were summarized (in some cases shown as average values) in Table 10 below. Lower value indicates higher binding affinity of the antibody to the antigen.

[2] = molecular target: DDR1 endogenously expressed on human cancer cell lines (T47D, HCT-116, A431) (human) (UniProt Q08345); experiment: flow cytometry, T47D cells
[3] = molecular target: DDR1 with a ProLink Tag (PK) in engineered U20S cells (DiscoveRx), Q08345; experiment: cell-based or functional assay
[4] = molecular target: DDR1 endogenously expressed on human cancer cell lines (T47D, HCT-116, A431) (human) (UniProt Q08345); experiment: cell-based or functional assay
[5] = molecular target: T2, human DDR2 stably expressed on HEK293 cells (human, UniProt Q16832 22-855); experiment: flow cytometry, HEK293/hDDR2
T2 construct: whole, on cells; also called hDDR2
T2 sequence (looked up): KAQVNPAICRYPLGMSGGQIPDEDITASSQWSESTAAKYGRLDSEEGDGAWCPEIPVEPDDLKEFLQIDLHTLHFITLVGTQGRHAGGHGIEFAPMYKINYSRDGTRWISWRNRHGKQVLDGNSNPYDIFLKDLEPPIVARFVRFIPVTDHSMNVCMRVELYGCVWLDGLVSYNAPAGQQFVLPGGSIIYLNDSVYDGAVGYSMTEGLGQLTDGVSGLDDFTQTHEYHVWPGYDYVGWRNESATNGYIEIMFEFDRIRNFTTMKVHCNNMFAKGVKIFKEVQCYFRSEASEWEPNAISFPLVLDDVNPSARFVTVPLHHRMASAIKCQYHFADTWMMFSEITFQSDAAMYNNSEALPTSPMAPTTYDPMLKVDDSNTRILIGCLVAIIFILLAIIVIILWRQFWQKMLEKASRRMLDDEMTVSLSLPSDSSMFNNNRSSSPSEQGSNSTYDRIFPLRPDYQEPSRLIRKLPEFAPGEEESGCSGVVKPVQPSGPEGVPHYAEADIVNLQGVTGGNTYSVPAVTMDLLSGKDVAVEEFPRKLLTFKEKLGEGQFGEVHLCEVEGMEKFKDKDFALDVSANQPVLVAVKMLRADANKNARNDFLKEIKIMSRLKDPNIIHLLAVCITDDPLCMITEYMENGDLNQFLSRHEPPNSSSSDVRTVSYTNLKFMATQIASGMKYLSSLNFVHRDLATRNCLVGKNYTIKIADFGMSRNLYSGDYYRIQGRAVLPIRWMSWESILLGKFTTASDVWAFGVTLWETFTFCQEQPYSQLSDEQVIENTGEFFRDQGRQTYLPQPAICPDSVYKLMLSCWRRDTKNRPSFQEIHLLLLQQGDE
Experimental: Additional monoclonal antibodies were obtained from individual hybridomas in Example 1 and were characterized for their properties.
Cells were cultured in DMEM with 10% FBS and 0.8 mg/mL hygromycin. When cells reached 60-80% confluence, they were centrifuged at 1,200 rpm for 5 minutes, suspended in FACS buffer (1×PBS, 1% BSA), and aliquoted into a 96-well plate at 1×10⁶ cells per well. The anti-DDR1 monoclonal antibodies or appropriate isotype controls at 2 μg per 1×10⁶ cells were added and incubated at 4° C. for 1 hr. The cells were washed twice with FACS buffer then stained with the anti-IgG-PE secondary antibody at 10 μL per well at 4° C. for 1 hr. The cells were washed again and measured for the MFI values or signals using flow cytometry (LSR Fortessa instrument, BD Biosciences). Background MFI signals from vector-only cells (i.e. no DDR1 or DDR2 expression) was subtracted from those of the cells treated with antibodies. Higher MFI values or signals indicated increased binding or specificity of the anti-DDR1 antibodies to the DDR1 on the cell surface.

[6] = molecular target: DDR1 endogenously expressed on human cancer cell lines (T47D, HCT-116, A431) (human) (UniProt Q08345); experiment: flow cytometry, HCT116 cells
[7] = molecular target: human DDR1 (isoform B) stably expressed on HEK293 cells (human) (UniProt Q08345); experiment: flow cytometry, HEK293/hDDR1
[8] = molecular target: T3, DDR1ECD-Fc (R&D Systems, Catalog #2396-DR) (human, UniProt Q08345 21-416); experiment: ELISA, coated antigen, apparent KD
T3 construct: range 21-416; construct as described for the bought immunogen; also called human ECD-DDR1-Fc; Fc-ECD-DR1; not shown: human IgG1, Pro100-Lys330
Experimental: as §1

[9] = molecular target: T4, human ECD-DDR1-His protein (human, UniProt Q08345 21-416); experiment: ELISA, coated antigen, apparent KD
T4 construct: also called huDDR1-ECD-His; DDR1ECD-6Xhis; not shown: His tag
Experimental: as §1

[10] = molecular target: DDR1 endogenously expressed on human cancer cell lines (T47D, HCT-116, A431) (human) (UniProt Q08345); experiment: cell-based or functional assay; remark: listed apart in the source
mouse ECD-DDR1-Fc [11] = molecular target: T1, mouse ECD-DDR1-Fc; experiment: ELISA, coated antigen, apparent KD
Experimental: as §1

[12] = molecular target: human DDR1 (isoform B) stably expressed on HEK293 cells (human) (UniProt Q08345); experiment: flow cytometry, HEK293/human DDR1, normalized to empty-vector cells
[13] = molecular target: T3, DDR1ECD-Fc (R&D Systems, Catalog …); experiment: ELISA

Chain of human DDR1 (isoform B) stably expressed on HEK293 cells (human) (Q08345 19-913): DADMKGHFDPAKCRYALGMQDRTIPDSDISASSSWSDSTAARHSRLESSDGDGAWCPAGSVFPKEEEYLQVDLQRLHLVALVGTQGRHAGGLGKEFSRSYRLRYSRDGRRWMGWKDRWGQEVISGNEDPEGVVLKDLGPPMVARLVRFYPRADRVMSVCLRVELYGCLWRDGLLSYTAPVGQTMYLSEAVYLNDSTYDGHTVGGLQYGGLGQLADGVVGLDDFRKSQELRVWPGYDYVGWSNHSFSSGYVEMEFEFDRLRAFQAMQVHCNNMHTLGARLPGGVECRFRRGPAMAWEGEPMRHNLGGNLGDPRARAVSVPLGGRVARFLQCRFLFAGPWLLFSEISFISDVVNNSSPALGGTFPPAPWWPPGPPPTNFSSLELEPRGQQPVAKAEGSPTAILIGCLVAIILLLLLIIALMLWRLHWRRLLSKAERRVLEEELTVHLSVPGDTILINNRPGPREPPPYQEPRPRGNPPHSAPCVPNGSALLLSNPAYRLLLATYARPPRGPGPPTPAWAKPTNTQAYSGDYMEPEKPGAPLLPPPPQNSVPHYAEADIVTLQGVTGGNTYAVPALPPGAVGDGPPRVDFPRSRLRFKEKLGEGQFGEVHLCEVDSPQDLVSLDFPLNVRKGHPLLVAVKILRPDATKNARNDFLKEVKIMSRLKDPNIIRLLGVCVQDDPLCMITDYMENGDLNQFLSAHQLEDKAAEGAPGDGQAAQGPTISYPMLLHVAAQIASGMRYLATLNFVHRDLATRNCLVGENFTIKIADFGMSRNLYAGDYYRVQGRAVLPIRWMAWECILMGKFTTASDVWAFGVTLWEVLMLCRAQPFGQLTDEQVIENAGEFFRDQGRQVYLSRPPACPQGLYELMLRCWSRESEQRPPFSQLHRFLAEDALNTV

| Binder | binding result (mouse ECD-DDR1-Fc [1]) | MFI [2] [MFI] | Mean EC50, DDR1 Tyr513 phosphorylation assay (U20S) [3] [nM] | EC50, DDR1 phospho-specific ELISA (T47D) [4] [nM] | Maximal inhibition, DDR1 phospho-specific ELISA (T47D) [4] [%] | NPI of cluster formation at 66 nM (A431 cells) [4] [%] | MFI [5] [MFI] | MFI [6] [MFI] | MFI [7] [MFI] | Kd [8] [nM] | Kd [9] [nM] | EC50, DDR1 phospho-specific ELISA (T47D) [10] [nM] | EC50, cluster formation assay (A431 cells) [10] [nM] | Maximal inhibition, DDR1 phospho-specific ELISA (T47D) [10] [%] | NPI of cluster formation at 66 nM (A431 cells) [10] [%] | Kd (mouse ECD-DDR1-Fc [11]) [nM] | MFI [12] [MFI] | Kd [13] [nM] | EC50, cluster formation assay (A431 cells) [4] [nM] |
| --- | --- | --- | --- | --- | --- | --- | --- | --- | --- | --- | --- | --- | --- | --- | --- | --- | --- | --- | --- |
| AB2029 (antibody, V domains shown, mouse hybridoma mAb) VH: QVLLRQSGPGLVQPSQSLSITCTVSGFSLTTYGVHWVRQSPGKGLEWLGVIWSGGSTDYNAAFISRLTISKDNSKSQVFFKMNSLQANDTAIYYCARYYSGSSLYFAMDYWGQGTSVTVSS VL: NIVMTQTPKFLLVSAGDTVTITCKASQSVSNDVAWYQQKPGQSPKLLIYYASNRYTGVPDRFTGSGFGTDFTFTISTVQTEDLAVYFCQQDYSSLTFGAGTKLELKR | no binding | 3560 | 4.9 | 0.55 | 100 | 100 | 263 | 1010 | 11700 | 0.302 | 0.397 |  |  |  |  |  |  |  |  |
| AB2009 (antibody, V domains shown, mouse hybridoma mAb) VH: EVQLVESGGGLVQPGGSLKFSCAASGFTFSSYGMSWVRQTPDKRLELVAIINSHGFSTYYPDSVKGRFTISRDNAKNTLYLQMSSLKSEDTAIYYCARGGYGNYGMDYWGQGTSVTVSS VL: DIVLTQSPASLAVSLGQRATISCRASESVDSYGNSFMHWYQQKVGQPPKLLIFRASNIESGIPARFSGSGSRTDFTLTINSVEADDVATYYCQQSNEAPYTFGGGTKLEIKR |  | 5930 | 1.5 |  |  |  | 277 | 1480 | 11900 | 0.257 | 0.197 | 0.47 | 0.43 | 100 | 127 | 6.93 | 11900 | 0.257 |  |
| AB2065 (antibody, V domains shown, mouse hybridoma mAb) VH: EVMLVESGGGLVKPGGSLKLSCAASGFTFSNYAMSWVRQTPEKRLEWVAKTSSGDTYTYYPDSVKGRFTISRDNAKNTLYLQMTSLRSEDTAIYYCARQDYYGITPWFFDVWGAGTTVTVSS VL: ENVLTQSPAIMSASPGEKVTMTCRASSSVSSIYLHWYQQKSGASPKLWIYSTSNLASGVPARFSGSGSGTSYSLTITSVEAEDAATYYCQQYSGYPLITFGAGTKLELKR | no binding | 4400 | 25.7 |  |  |  | 353 | 2480 | 3560 | 0.234 | 0.197 | 0.35 |  | 100 | 15.8 |  |  |  |  |
| AB2079 (antibody, V domains shown, mouse hybridoma mAb) VH: EVMLVESGGGLVKPGGSLKLSCAASGFTFSNYAMSWVRQTPEKRLEWVAKTSSGDTYTYYPDSVKGRFTISRDNAKNTLYLQMTSLRSEDTAIYYCARQDYYGITPWFFDVWGAGTTVTVSS VL: ENVLTQSPAIMSASPGEKVTMTCRASSSVSSIYLHWYQQKSGASPKLWIYSTSNLASGVPARFSGSGSGTSYSLTITSVEAEDAATYYCQQYSGYPLITFGAGTKLELKR | no binding | 6130 |  |  |  |  | 326 | 1730 | 14300 | 0.0883 | 0.07 | 0.13 |  |  | 0.5 |  | 14300 | 0.088 |  |
| AB2034 (antibody, V domains shown, mouse hybridoma mAb) VH: QVQLKESGPGLVAPSQSLSITCTVSGFSLTSYHIHWVRQPPGKGLEWLVVIWSDGSTTYNSALKSRLSISKDNSKSQVFLKMNSLQTDDTAIYYCARTGNFYAMDYWGQGTSVTVSS VL: SIVMTQTPKFLLVSAGDRVTITCKASQSVSNDVVWYQQKPGQSPKLLIYYASSRYTGVPDRFTGSGYGTDFTFTISTVQAEDLAVYFCQQDYSSPYTFGGGTKLEIR | no binding | 4370 | 5.2 | 0.63 | 100 | 119 | 175 | 1060 | 11400 | 0.256 | 0.311 |  |  |  |  |  |  |  | 7.87 |
| AB2021 (antibody, V domains shown, mouse hybridoma mAb) VH: EVKLVESGGGLVKPGGSLNLSCAASGFTFSNYAMSWSRQTPEKRLEWVASISSGGNTYYPDSVRGRFTISRDNARNILYLQMSSLRSEDTAMYYCAREPGTYNWYFDVWGAGTTVTVSS VL: DIVMTQSQKFMSTSVGDRVSVTCKASQNVGTNVAWYQQKPGQSLKALIYSASYRFSGVPDRFTGSGYGTDFTLTISNVQSEDLAEYFCQQCNSYPLTFGAGTKLELKR | no binding | 5010 | 7.71 | 2.26 | 100 | 106 | 92 | 1390 | 15800 | 0.252 | 0.153 |  |  |  |  |  |  |  | 18.5 |
